Data from patent publication US20100015135A1.

T1: human EphB4-His (human) (UniProt P54760)
T1 sequence (looked up): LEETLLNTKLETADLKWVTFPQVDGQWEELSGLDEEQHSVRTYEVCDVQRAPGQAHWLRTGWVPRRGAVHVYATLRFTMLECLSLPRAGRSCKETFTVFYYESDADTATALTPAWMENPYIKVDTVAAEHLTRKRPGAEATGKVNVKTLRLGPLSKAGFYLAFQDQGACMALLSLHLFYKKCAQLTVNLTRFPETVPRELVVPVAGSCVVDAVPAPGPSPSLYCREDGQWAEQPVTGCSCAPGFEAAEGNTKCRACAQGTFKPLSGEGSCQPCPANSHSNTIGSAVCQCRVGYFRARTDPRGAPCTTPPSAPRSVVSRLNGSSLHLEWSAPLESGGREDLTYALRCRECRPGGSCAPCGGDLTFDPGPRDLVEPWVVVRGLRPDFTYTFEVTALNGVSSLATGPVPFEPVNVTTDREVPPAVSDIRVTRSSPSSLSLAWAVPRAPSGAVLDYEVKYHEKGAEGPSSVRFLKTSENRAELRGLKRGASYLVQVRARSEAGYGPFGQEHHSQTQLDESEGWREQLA


Experiments:
human EphB4-His (human) = molecular target: T1, human EphB4-His (human); experiment: SPR, BIAcore-3000, antibody coupled to CM5 chip, EphB4-His injected, 25 C
[1] = molecular target: murine EphB4-His (murine) (UniProt P54761); experiment: as above

Binder	Kd (human EphB4-His (human))	koff (human EphB4-His (human))	kon (human EphB4-His (human))	Kd [1]	koff [1]	kon [1]
anti-EphB4 antibody clone YW30.35 (antibody, V domains shown) VH: EVQLVESGGGLVQPGGSLRLSCAASGFTISGYYIHWVRQAPGKGLEWVGGIYPYSGSTDYADSVKGRFTISADTSKNTAYLQMNSLRAEDTAVYYCARGSGLRLGGLDYAMDYWGQGTLVTVSS VL: DIQMTQSPSSLSASVGDRVTITCRASQDVSTAVAWYQQKPGKAPKLLIYSASFLYSGVPSRFSGSGSGTDFTLTISSLQPEDFATYYCQQSYTTPPTFGQGTKVEIK	32000 pM	9.6e-05 s⁻¹	3000 M⁻¹ s⁻¹	2400 pM	7.5e-05 s⁻¹	31000 M⁻¹ s⁻¹
anti-EphB4 antibody clone YW30.35.1D2 (antibody, V domains shown) VH: EVQLVESGGGLVQPGGSLRLSCAASGFTISGYYIHWVRQAPGKGLEWVGGIYPYSGSTDYADSVKGRFTISADTSKNTAYLQMNSLRAEDTAVYYCARSSGLRLGGLDYAMDYWGQGTLVTVSS VL: DIQMTQSPSSLSASVGDRVTITCRASQDSEIFLAWYQQKPGKAPKLLIYSASNLESGVPSRFSGSGSGTDFTLTISSLQPEDFATYYCQQSNAVPLTFGQGTKVEIK	< 140 pM	< 5e-06 s⁻¹	36000 M⁻¹ s⁻¹	< 40 pM	< 5e-06 s⁻¹	128000 M⁻¹ s⁻¹

The next lines start with the values.

Kd (human EphB4-His (human))	koff (human EphB4-His (human))	kon (human EphB4-His (human))	Kd [1]	koff [1]	kon [1]	Binder
< 120 pM	< 5e-06 s⁻¹	40000 M⁻¹ s⁻¹	< 50 pM	< 5e-06 s⁻¹	92000 M⁻¹ s⁻¹	anti-EphB4 antibody clone YW30.35.2D8 (antibody, V domains shown) VH: EVQLVESGGGLVQPGGSLRLSCAASGFSISNYYLHWVRQAPGKGLEWVGGIYLYGSSSEYADSVKGRFTISADTSKNTAYLQMNSLRAEDTAVYYCARGSGLRLGGLDYAMDYWGQGTLVTVSS VL: DIQMTQSPSSLSASVGDRVTITCRASQDVSTAVAWYQQKPGKAPKLLIYSASFLYSGVPSRFSGSGSGTDFTLTISSLQPEDFATYYCQESTTTPPTFGQGTKVEIK
< 110 pM	< 5e-06 s⁻¹	45000 M⁻¹ s⁻¹				anti-EphB4 antibody clone 30.35.2D13 (antibody, V domains shown) VH: EVQLVESGGGLVQPGGSLRLSCAASGFTISGYYIHWVRQAPGKGLEWVGGIYLYSGSTDYADSVKGRFTISADTSKNTAYLQMNSLRAEDTAVYYCARGSGLRLGGLDYAMDYWGQGTLVTVSS VL: DIQMTQSPSSLSASVGDRVTITCRASQDVSTAVAWYQQKPGKAPKLLIYSASFLYSGVPSRFSGSGSGTDFTLTISSLQPEDFATYYCQQTAQTPETFGQGTKVEIK
< 190 pM	< 5e-06 s⁻¹	27000 M⁻¹ s⁻¹				anti-EphB4 antibody clone YW30.35.2D12 (antibody, V domains shown) VH: EVQLVESGGGLVQPGGSLRLSCAASGFTISGYYIHWVRQAPGKGLEWVGGIYLYSGSRGYADSVKGRFTISADTSKNTAYLQMNSLRAEDTAVYYCARGSGLRLGGLDYAMDYWGQGTLVTVSS VL: DIQMTQSPSSLSASVGDRVTITCRASQDVSTAVAWYQQKPGKAPKLLIYSASFLYSGVPSRFSGSGSGTDFTLTISSLQPEDFATYYCQKSETIPPSFGQGTKVEIK
